The record followed here is PMC4122391, “Analysis of Functions of VIP1 and Its Close Homologs in Osmosensory Responses of Arabidopsis thaliana”.

In data set [1] the target is T1, GST-VIP1ΔN164 (Arabidopsis thaliana, UniProt Q9MA75 165-341).
T1 sequence: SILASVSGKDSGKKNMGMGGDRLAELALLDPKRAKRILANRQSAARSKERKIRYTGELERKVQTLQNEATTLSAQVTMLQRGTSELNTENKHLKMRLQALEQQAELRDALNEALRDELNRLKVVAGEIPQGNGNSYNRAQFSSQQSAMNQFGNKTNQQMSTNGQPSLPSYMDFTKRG
As to the kind of experiment: competition; EMSA, CYP707A1 probe; inhibits to same extent as A1; Gel shift with DIG-labeled probes as in cited ref. 17; competitors 0.5 µM unless stated; binding buffer, pH and temperature not given. To be noted: protein: recombinant; tags: N-terminal GST; chain copies: 2; blunt.

For data set [2], the target named is T1, GST-VIP1ΔN164. In words: competition; EMSA, CYP707A1 probe, competitor 0.5 µM; Gel shift with DIG-labeled probes as in cited ref. 17; competitors 0.5 µM unless stated; binding buffer, pH and temperature not given. As to conditions: protein: recombinant; tags: N-terminal GST; chain copies: 2; blunt.

B1: A3 (dsDNA)
DNA 1: CTCTCAAATTAGCTGGCTCCA
DNA 2: TGGAGCCAGCTAATTTGAGAG
For B1, in the data set with GST-VIP1ΔN164 [1], the binding result is reported as “binds”.

B2: A1 (dsDNA)
DNA 1: CTCTCAAATGAGCTGTCTCTC
DNA 2: GAGAGACAGCTCATTTGAGAG
For B2, the binding result with GST-VIP1ΔN164 [2] is “binds”.
